40 sequences from the nanobody polyreactivity screen of Harvey et al. (2022) can be followed below.

The nature of the data set: yeast display, Sf9 membrane polyspecificity reagent, FACS + sequencing; frameworks hold sequencing errors. Put shortly: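 A nanobody's polyreactivity label depends on the gate it was sorted from. Yeast display cells were stained with 10% biotinylated, detergent-solubilized Sf9 membrane reagent for 1 hour at 4 °C, enriched on streptavidin microbeads and sorted by FACS. The low and high (top ~1%) gates were set on anti-HA fluorescence for expression and streptavidin fluorescence for reagent binding.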
On to “QVQLVESGGGLVQAGGSLRLICAASGSIFRPNAMGWYRQAPGKEREFVASISGRVGSTYYADSVKGRFTISRDNAKNTVYLQMNSLKPEDTAVYYCAADFPTDKLSNFPITEYGYWGQGTQVTVSS”, for which the “polyreactivity (PSR sort gate)” value is listed as “high polyreactivity”.

As for “QVQLVESGGGLVQAGGSLRLICAASGSIFSENTMGWYRQAPGKERELVAAISWSGGSTKYADSVKGRFTISRDNAQITVYLQMNCLKPEDTSVYNCGTDIHDDTGAYDYWGQCTQVTVSS”, the “polyreactivity (PSR sort gate)” value was “low polyreactivity”.

“QVQLVESGGGLVQAGGSLRLICAASGSIFSTYTMGWYRQAPGKERELVAAITRSGGSTYYADSVKGRFTISRDNAKNTVYLQMNSLKPEDTAVYYCAAKGKRLRSYYQRYYYWGQGTQVTVSS”: the “polyreactivity (PSR sort gate)” value is reported as “high polyreactivity”.

As for “QVQLVESGGGLVQAGGSLRLICAASGSIFTPYVMGWYRQAPGKEREFVAAITQRGGRTYYADSVKGRFTISRDNAKNTVYLQMNSLKPEDTAVYYCAKTSVSRTYHRSAYDYWGQGTQVTVSS”, the “polyreactivity (PSR sort gate)” value is “high polyreactivity”.

Consider “QVQLVESGGGLVQAGGSLRLICAASGSIFTYYTMGWYRQAPGKERELVAAIRWSAGRTYYADSVKGRFTISRDNAKNSVYLQMNSLKPEDTSVYYCAAAERLRHGLKFDYWGQGTQVTVSS”, for which the “polyreactivity (PSR sort gate)” value was “high polyreactivity”.

As for “QVQLVESGGGLVQAGGSLRLICAASGSIFVGYAMGWCRQAPGKERELVAAIRSGGSTKYADSVKGRFTISRDNAKNTVYLQMNSLKPEDTAVYYCNVEVHPYYWVDNFHRFPVLHNYWGQGTQVTVSS”, the “polyreactivity (PSR sort gate)” value is “low polyreactivity”.

Consider “QVQLVESGGGLVQAGGSLRLICAASGSIRYYAMGWYTQAPGKEREFVAAISRRGSSTNYADSVKGRFTISRDNAKNTVYLQMNSLNPEDTAVYNCAAAARAGLKRYYYWGQGTQVTVSS”, for which the “polyreactivity (PSR sort gate)” value is on record as “high polyreactivity”.

For the sequence “QVQLVESGGGLVQAGGSLRLICAASGSISYINAMGWYRQATGKERELDARIRSGDPTNYADSVKGRFTISRDNAKNTVYLQMNSLKPEDTAVYYCARRVTGTLYYTGYDYWGQGTQVTVSS”, the “polyreactivity (PSR sort gate)” value is “high polyreactivity”.

Regarding “QVQLVESGGGLVQAGGSLRLICAASGSTFAYNYMGWYRQAPGKERELVPDIRSGGNTNYADSVKGRFTISRDNAKNTVYLQMNSLKPEDTAVYYCATDGYRIDVYHPDYRYDYWGQGTQVTVSS”, the “polyreactivity (PSR sort gate)” value is “low polyreactivity”.

Consider “QVQLVESGGGLVQAGGSLRLICAASGSTFDVNAMGWYRQAPGKERELVAAISWNSGSTYYADSVKGRFTISRDNAKNTVYLQMNSLKPEDTAVYYCAATYGTGRRSKYGYWGQGTQVTVSS”, for which the “polyreactivity (PSR sort gate)” value was “high polyreactivity”.

“QVQLVESGGGLVQAGGSLRLICAASGSTFFANAMGWYRPAPGKERELVAVITYSGGSTYYADSVKGRFTISRYNAKNTVYLQMNSLKPEDTAVDYCAAKSYFRPYSYSYSYWGQGTQVTVSS”: the “polyreactivity (PSR sort gate)” value was “high polyreactivity”.

Consider “QVQLVESGGGLVQAGGSLRLICAASGSTFGFNAMGWYRQAPGKERELVAAITFSGGTTYYADSVKGRFTISRDNAKNTVYVQMNSLKPDDTAVYYCNAEWWYHYTGPFAPWGEDYWGQGTQVTVSS”, for which the “polyreactivity (PSR sort gate)” value was “low polyreactivity”.

In the case of “QVQLVESGGGLVQAGGSLRLICAASGSTFHAYAMGWYRQAPGKERDLVAAITWSGDSTYADSVKGRFTISRDKAKNTFFLQMNSLKPEETAVYDCACRGFLGHWPRPSYDYWGQGTQVTVSS”, the “polyreactivity (PSR sort gate)” value is “low polyreactivity”.

As for “QVQLVESGGGLVQAGGSLRLICAASGSTFKRYAMGWYRQAPGKERELVAAISTRGSTYYADSVKGRFTISRDNAKNTVYLQMNSLKPEDTAVYYCNARQALVWKWSWYSPGYDYWGQGTQVTVSS”, the “polyreactivity (PSR sort gate)” value was “low polyreactivity”.

For the sequence “QVQLVESGGGLVQAGGSLRLICAASGSTFTQNAMGWYRQAPGKERELVAAISSSGTRTYYADSVKGRFTISRDNAKNTVYLQMNSLKPEDTAVYYCAATVYPSVYGENHYGYWGQGTKVTVSS”, the “polyreactivity (PSR sort gate)” value was “high polyreactivity”.

Consider “QVQLVESGGGLVQAGGSLRLICAASGSTFWPYARGWYRQAPGNERELVAAITWSGGRTYYADSVKGRFTISRDNAKNTVYLQMNSLKPEDTAVYYCAADSYVLGRWYGYWGQGTQVTVSS”, for which the “polyreactivity (PSR sort gate)” value is “low polyreactivity”.

Consider “QVQLVESGGGLVQAGGSLRLICAASGSTLKYYAMGWSRPAPGKERELVARITRSSGSTYYADSVKGRFTISRDNAKNTVYLQMNSMKPEDTAVYYCNKVYKSYYWGGYDWGQGTQVTVSS”, for which the “polyreactivity (PSR sort gate)” value was “high polyreactivity”.

With “QVQLVESGGGLVQAGGSLRLICAASGSTLYRNAMGWYRQARGKERELVAAISSSGGTTFYADSVKGRFTISRDNAKNTVYLQMNSLKPEDTAVYYCNRTARKLLTVHSSVVGLDYWGQGSQVTVSS”, the “polyreactivity (PSR sort gate)” value is “low polyreactivity”.

As to “QVQLVESGGGLVQAGGSLRLICAASGSTSYVYAMGWYRQAPGKERELVAAISGSGGRTYYADSVKGRFTISRDNAKNTVYLQMNSLKPEDTAVYYCNALPRPSYPFEYWGQGTQVTVSS”, the “polyreactivity (PSR sort gate)” value is “high polyreactivity”.

For “QVQLVESGGGLVQAGGSLRLICAASGSTTFYAKGWYRPAPGKEWELVATISSSAGSTYYADSVKGRFTISRDNAKNNVYLEMNSLIPEDTAVFYCDAKYSQLRQYYRLDYWGQGTQVTVSS”, the “polyreactivity (PSR sort gate)” value is on record as “low polyreactivity”.

Take “QVQLVESGGGLVQAGGSLRLICAASGSTYSVYAMVWYRQAPGKERELVATITWNGGRTYYADSVKGRFTISRDNAKNTVYLQMNSLKPEDTAVYYCAADGWTSIGGPDYQHDYWGQGTQVTVSS”: the “polyreactivity (PSR sort gate)” value is recorded as “high polyreactivity”.

“QVQLVESGGGLVQAGGSLRLICAASGSTYYDYAMGWYRQAPGKERELVAGISRSGGSTYYADSVKGRFTISRDNAKNSVYLQMNSLKPEDTAVYYCAARNYRYLYRIEYWGQGTQVTVSS”: the “polyreactivity (PSR sort gate)” value is “high polyreactivity”.

As to “QVQLVESGGGLVQAGGSLRLICAASGTFTSNAMGWYRQAPGKERELVAVITSTDSTNYADSVKGRFTISRDNAKNTVYLPLNSLKPEDTAVYYCAGSKYTVVQQYWDVLFDYWGQGTQVTVSS”, the “polyreactivity (PSR sort gate)” value is reported as “low polyreactivity”.

In the case of “QVQLVESGGGLVQAGGSLRLICAASGYIFKHNAMGWYRQAPGKERELVAAISWSGVSTYYADSVTGRFTISRDNAKNTVYLQMNSLKPEDTAVYYCNAPAIAPIYDYWGQGTQVTVSS”, the “polyreactivity (PSR sort gate)” value is reported as “low polyreactivity”.

Turning to “QVQLVESGGGLVQAGGSLRLICAASGYILWKAMGWYRQAPGKERELVAAIRFRVGSTSYADSVKGRFTISRDNAKNTVYLQMNSLKPVYTAVYYCTARWWVIRPYQRHDYWGQGTQVTVSS”, the “polyreactivity (PSR sort gate)” value is listed as “low polyreactivity”.

On to “QVQLVESGGGLVQAGGSLRLICAASGYTFEYNAMGWSRQAPGKEREFVATITASGDSTYYADSVKGRFTISRDNAKNTVYLQMNSLKPEDTAVYYCATEKRDVYFTAKYDYWGQGTQVTVSS”, for which the “polyreactivity (PSR sort gate)” value is on record as “low polyreactivity”.

On to “QVQLVESGGGLVQAGGSLRLICAASGYTFFFYAMGWYRQAPGKEREFVAAITWRGDSTYYADSVKGRYTISRDNAKNTVYLQMNSLKPEDTAVYYCAADPGFTWSRRMDYWGHGTQVTVSS”, for which the “polyreactivity (PSR sort gate)” value was “low polyreactivity”.

For “QVQLVESGGGLVQAGGSLRLICAASGYTFPDYAMGWYRPAPGTERELVAAIRSGGGTNYADSVKGRFTISRDNAKNSVYLQMNSMKPEDTAVFYCAKEWAGGLYDYWGQGTQVTVSS”, the “polyreactivity (PSR sort gate)” value is reported as “low polyreactivity”.

For the sequence “QVQLVESGGGLVQAGGSLRLICAASGYTFPYAMGWYRQAPGKERELVAAISRSGASTYYADSVKGRFTISRDNAKNTVYLQMNSLKPEDTAVYYCATRRVYSTRVKFYYWGQGTQVTVSS”, the “polyreactivity (PSR sort gate)” value is recorded as “high polyreactivity”.

For “QVQLVESGGGLVQAGGSLRLICAASGYTFYYAMGWYRQAPGKERELVAAISAGGGRTYYADSVKGRFTISRDNAKITVYLQMNSLKPEDTAVYYCNRVYRLTAYGYDYWGQGTQVTVSS”, the “polyreactivity (PSR sort gate)” value is given as “high polyreactivity”.

For the sequence “QVQLVESGGGLVQAGGSLRLICAATGFTFHNNVMGWYRQAPGKERELVATISKSGGSTYYADSVKGRFTISRDNAKNTVYLQMNRLKPEDTAVYYCARRYRDYGRYGYWGQGTQVTVSS”, the “polyreactivity (PSR sort gate)” value is “high polyreactivity”.

On to “QVQLVESGGGLVQAGGSLRLICAGSGSTFPTYAMGWYRQAPGKERELVAAITSGSGTNTYYADSVKGRFTISRDNAKNTVYLQMNSLKPEDTAVYYCAASGGKNGMNYWGQGTQVTVSS”, for which the “polyreactivity (PSR sort gate)” value is “high polyreactivity”.

“QVQLVESGGGLVQAGGSLRLICAPSGITFYPYSMGWSRQAPGKERELVAAISGGTNTHYADSVKGRFTISRDNAKNTDYLQMNSLKPVDTAVYYCAAGIDFRRTTSYSFWFDYWGQGTQVTVSS”: the “polyreactivity (PSR sort gate)” value is listed as “high polyreactivity”.

As for “QVQLVESGGGLVQAGGSLRLICASSGRIFSPYVMGWYRQAPGKERELVARISWTGSSTYYADSVKGRFTISRDNAKNTVYLQMNSLKPEDTAVYYCAKRLTRFYTRLEYWGLGTQVTVSS”, the “polyreactivity (PSR sort gate)” value is “low polyreactivity”.

For “QVQLVESGGGLVQAGGSLRLICDASGRTFPPYAMGWYRQAPGKERELVAAISRRAGTTYYADSVKGRFTISRDNAKNTDYLQMNSLKPEDTAVYYCAADTPVWSGYWYDYWGQGTQVTVSS”, the “polyreactivity (PSR sort gate)” value is on record as “low polyreactivity”.

In the case of “QVQLVESGGGLVQAGGSLRLICPASGSTFQYYAMGWYRQAPGKEREFVAAIRSSGGTTYYADSVKGRFTISRDNAKKTVYLQMNSLKPEDTAVYYCATVVNYPSARYCYWGQGTKVTVSS”, the “polyreactivity (PSR sort gate)” value was “high polyreactivity”.

As for “QVQLVESGGGLVQAGGSLRLICSASGSTFNLYAMGWYRQAPWTERELVAAISYRGGTTYYADSVKGRFTISRDNAKHTVYLQMNSLKREDTAVYYCSAGWRPRSLRDASKYDFWGQGTQVTVSS”, the “polyreactivity (PSR sort gate)” value is recorded as “low polyreactivity”.

Regarding “QVQLVESGGGLVQAGGSLRLNCAASGITFGYNAMGWYRQPPGKERELVAAISSRGGSTYYADSVKGRFTISRDNAKNTVYLQMNSMKPEDTAVYYCAKDGGPGRYAWYWPVRMGYWGQGTQVTVSS”, the “polyreactivity (PSR sort gate)” value was “high polyreactivity”.

In the case of “QVQLVESGGGLVQAGGSLRLNCAASGITIRRYAMGCYRQAPGNERELVAAITTGGGGTYYADSVKGRFTISRDNAMNTVYLQMNSLKPEDTAVYYCAATYWRTYPSYYWGQGTQVTVSS”, the “polyreactivity (PSR sort gate)” value is “high polyreactivity”.

As for “QVQLVESGGGLVQAGGSLRLNCAASGNIFISYAMGWYRQAPGKERELVAAISRSGGSTYYADSVKGRFTISRDYAKNTVYLQMNSLKPEDTAVYYCAAYIGPGRYGSWGQGTQVTVSS”, the “polyreactivity (PSR sort gate)” value is recorded as “high polyreactivity”.
